T1: MBF1 (Giardia lamblia, UniProt A8BZ03 1-107)
T1 sequence: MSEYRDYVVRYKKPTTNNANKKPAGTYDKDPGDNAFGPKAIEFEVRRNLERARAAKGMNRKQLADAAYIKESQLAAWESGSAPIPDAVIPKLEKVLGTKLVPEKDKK

B1: 18S-30/-1 (dsDNA)
DNA 1: GGCGCCCGGCCCGCGGCGCCCGCGCCCGGC
DNA 2: GCCGGGCGCGGGCGCCGCGGGCCGGGCGCC
B2: cwp3-60/-31 (dsDNA)
DNA 1: GTAGACTTTGAGTTACTTAGCTCTACAGTT
DNA 2: AACTGTAGAGCTAAGTAACTCAAAGTCTAC
B3: cwp2-30/+8 (dsDNA)
DNA 1: CAGCAGCTCAACAGTGGCTGGGAAAATAAAATGATCGC
DNA 2: GCGATCATTTTATTTTCCCAGCCACTGTTGAGCTGCTG
B4: poly(A) (dsDNA)
DNA 1: AAAAAAAAAAAAAAAAAAAAAAA
DNA 2: TTTTTTTTTTTTTTTTTTTTTTT
B5: poly(A) with T insertion (dsDNA)
DNA 1: AAAAAAAAAAATAAAAAAAAAAA
DNA 2: TTTTTTTTTTTATTTTTTTTTTT
B6: myb2-30/-1 (dsDNA)
DNA 1: TACTAAAATAATAATTACTCTGTACTGCTA
DNA 2: TAGCAGTACAGAGTAATTATTATTTTAGTA
B7: poly(A) with TT insertion (dsDNA)
DNA 1: AAAAAAAAAAATTAAAAAAAAAA
DNA 2: TTTTTTTTTTAATTTTTTTTTTT
B8: cwp1-90/-46 (dsDNA)
DNA 1: CTGGCTAACAGTCTACAGTCTACAATTTACAGTATACAATCTACA
DNA 2: TGTAGATTGTATACTGTAAATTGTAGACTGTAGACTGTTAGCCAG
B9: ran-51/-20 (dsDNA)
DNA 1: TAAAATAAATTAAATCGAAATTAAAACTTTAA
DNA 2: TTAAAGTTTTAATTTCGATTTAATTTATTTTA
B10: cwp2-60/-31 (dsDNA)
DNA 1: TAGACTGATGCTGTAGAGGTCAACAGATAA
DNA 2: TTATCTGTTGACCTCTACAGCATCAGTCTA
B11: cwp1-45/-1 (dsDNA)
DNA 1: GTTTACAACTCTCAGATCAAGAAACACAGAAATAAAATATCAGGG
DNA 2: CCCTGATATTTTATTTCTGTGTTTCTTGATCTGAGAGTTGTAAAC

The first series addresses T1, MBF1. The series can be described thus: EMSA; EMSA, 5 ng purified protein, 5'-end-labeled ds oligonucleotides, 6% polyacrylamide gel; buffer, salt, pH and temperature not given (cited to ref 19). Conditions: protein: recombinant; tags: C-terminal V5 and His (pET101/D-TOPO). (In general: Mobility shift assays separate free from complexed probe on a gel.)
B1: the binding result is “no binding”.

The series is the same for the next values; noted with them: protein: recombinant; tags: C-terminal V5 and His (pET101/D-TOPO); label: 5'-32P.
Regarding B2, the binding result was “binds”.
Still for that read-out and setting: for B3 the value was “binds”.
Still for that read-out and setting: for B4 the value was “binds”; for B5, “binds”; for B6, “binds”.
Same read-out and setting: the value for B7 was “binds”; that for B8 was “binds”.
Consider B9, for which the binding result was “binds”.
The same measure, in the same setting: the value for B10 was “binds”.

A further series has as its target T1, MBF1. Kind of series: EMSA; supershifted by anti-V5-HRP; competed by 200-fold cold cwp1-45/-1; EMSA, 5 ng purified protein, 5'-end-labeled ds oligonucleotides, 6% polyacrylamide gel; buffer, salt, pH and temperature not given (cited to ref 19). As to conditions: protein: recombinant; tags: C-terminal V5 and His (pET101/D-TOPO); label: 5'-32P.
Consider B11, for which the binding result is “binds”.

For the origin of these results see paper PMC7866390, “A Novel Multiprotein Bridging Factor 1-Like Protein Induces Cyst Wall Protein Gene Expression and Cyst Differentiation in Giardia lamblia”.
